Data on three molecules can be found in US20050176630A1.

No end group written: not given here.

In experiment [1] the target is µ opioid receptor on POMC neurons in mouse hypothalamic slices (mouse) (UniProt P42866). Briefly: cell-based or functional assay.
Experiment [2] addresses MC3-R in mouse arcuate nucleus slices (mouse) (UniProt P33033). The experiment is described as follows: cell-based or functional assay.
For experiment [3], the target named is T1, NPY Y2 receptor (expressed on a cell line).
T1 sequence (P49146 whole entry, species assumed, looked up): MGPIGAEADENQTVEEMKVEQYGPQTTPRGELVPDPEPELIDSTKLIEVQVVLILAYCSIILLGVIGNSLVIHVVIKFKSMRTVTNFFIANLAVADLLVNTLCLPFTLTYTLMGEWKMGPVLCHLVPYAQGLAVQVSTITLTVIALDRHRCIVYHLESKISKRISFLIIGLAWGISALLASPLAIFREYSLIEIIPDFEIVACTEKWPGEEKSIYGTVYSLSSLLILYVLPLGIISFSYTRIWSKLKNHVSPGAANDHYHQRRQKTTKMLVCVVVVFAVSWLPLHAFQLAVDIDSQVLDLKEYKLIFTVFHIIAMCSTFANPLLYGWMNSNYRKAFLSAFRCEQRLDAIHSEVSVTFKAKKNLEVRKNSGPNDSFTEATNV
The experiment is described as follows: receptor-binding study on a cell line expressing the NPY Y2 receptor; labelled ligand not named.

µ opioid receptor on POMC neurons in mouse hypothalamic slices (mouse), sequence (P42866 whole entry): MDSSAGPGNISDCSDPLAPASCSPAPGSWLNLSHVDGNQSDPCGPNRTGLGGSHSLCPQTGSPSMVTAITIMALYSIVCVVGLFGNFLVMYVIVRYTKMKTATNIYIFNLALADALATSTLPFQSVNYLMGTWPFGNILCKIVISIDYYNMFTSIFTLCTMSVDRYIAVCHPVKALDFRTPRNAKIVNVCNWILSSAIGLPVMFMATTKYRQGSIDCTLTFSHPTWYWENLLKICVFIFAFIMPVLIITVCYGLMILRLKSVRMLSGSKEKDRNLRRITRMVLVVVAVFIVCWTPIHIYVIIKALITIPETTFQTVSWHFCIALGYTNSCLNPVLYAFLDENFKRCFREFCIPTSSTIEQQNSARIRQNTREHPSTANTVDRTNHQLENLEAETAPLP
MC3-R in mouse arcuate nucleus slices (mouse), sequence (P33033 whole entry): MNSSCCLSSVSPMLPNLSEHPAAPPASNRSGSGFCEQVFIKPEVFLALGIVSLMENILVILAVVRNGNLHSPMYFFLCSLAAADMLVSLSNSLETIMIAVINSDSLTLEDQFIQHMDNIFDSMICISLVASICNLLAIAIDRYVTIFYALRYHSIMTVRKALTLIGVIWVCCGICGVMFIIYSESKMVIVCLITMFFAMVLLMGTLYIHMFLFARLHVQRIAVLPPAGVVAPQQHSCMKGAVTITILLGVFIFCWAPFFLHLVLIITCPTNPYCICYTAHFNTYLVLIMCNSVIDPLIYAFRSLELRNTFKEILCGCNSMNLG

In experiment [1], “met-enkephalin (from UniProt P01210 100-104) (peptide)” registered a hyperpolarization of the membrane potential of POMC cells (Met-Enk 30 µM) of 10 to 20 mV.

D-Trp^8-γMSH (peptide): the frequency of GABAergic IPSCs recorded from POMC neurons (D-Trp^8-γMSH 7 nM) in experiment [2] came out at 280%.

For the molecule Ac-LRHYLNLLTRQRY (ends and bridges not checked) [N-acetyl (Leu^28, Leu^31) NPY (24-36)], in experiment [3], the IC50 came to 1.3 nM.
